According to the supplement of paper PMC6757056:
± gives the standard deviation of the averaged measurements.

B1: library; a variant is named by its letters at N, in order (parent)
chain: GCUGUCACCGGUGCUUGGUACGUUAUAUUCAGCCGGUCUGAUGAGUCUNNNNNNAGACGAAACAGC

Experiments:
(6R,S)-folinic acid [1] = variants of: B1; experiment: FACS-Seq fitted mean relative fluorescence mCherry/BFP without ligand (log10 relative fluorescence); HEK293T overexpressing SLC46A1; higher = higher reporter protein expression; details: without (6R,S)-folinic acid; ligand present: no
How it was run: (§1)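 Fluorescence is reported as a normalized fitted mean of sorted-bin read counts. Lentivirally transduced HEK293T libraries (mCherry ribozyme-switch reporter, EF1α-BFP marker) were enriched, treated with or without ligand for 48 h, and sorted into 6 mCherry/BFP bins for MiSeq sequencing of PCR-amplified genomic DNA. The normal fit was on log10(mCherry/BFP), scaled to five spiked-in control ribozymes.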

(6R,S)-folinic acid [2] = variants of: B1; experiment: normalized RNA/DNA level without ligand (relative to sTRSVctl = 100) (log10 (% of sTRSVctl)); HEK293T overexpressing SLC46A1; higher = less ribozyme self-cleavage, higher mRNA level; details: without (6R,S)-folinic acid; ligand present: no
How it was run: (§2)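 Library plasmids encoding reporter-linked ribozyme switches (mCherry, or eGFP for some folinic acid experiments) were transfected into HEK293T at 4 µg per 6-well well. Ligand, when used, was added 1 h before transfection. Total RNA was extracted with EDTA 72 h later, then reverse-transcribed, amplified, barcoded and sequenced. RNA level was RNA reads over DNA reads, divided by a spiked-in non-cleaving control (or the top 25 sequences), ×100, log10; only sequences with ≥100 DNA reads were kept.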

(6R,S)-folinic acid [3] = variants of: B1; experiment: FACS-Seq fitted mean relative fluorescence mCherry/BFP with ligand (log10 relative fluorescence); HEK293T overexpressing SLC46A1; ligand concentration (+) FACS-Seq: 6 mM; higher = higher reporter protein expression; details: with (6R,S)-folinic acid; ligand present: yes
How it was run: as §1

(6R,S)-folinic acid [4] = variants of: B1; experiment: normalized RNA/DNA level with ligand (relative to sTRSVctl = 100) (log10 (% of sTRSVctl)); HEK293T overexpressing SLC46A1; ligand concentration (+) RNA-Seq: 6 mM; higher = less ribozyme self-cleavage, higher mRNA level; details: with (6R,S)-folinic acid; ligand present: yes
How it was run: as §2

Variant | FACS-Seq fitted mean (log10) ((6R,S)-folinic acid [1]) | normalized RNA/DNA level without ligand (log10) ((6R,S)-folinic acid [2]) | FACS-Seq fitted mean (log10) ((6R,S)-folinic acid [3]) | normalized RNA/DNA level with ligand (log10) ((6R,S)-folinic acid [4])
CGUCUC | 0.692 ± 0.063 | 2.06 ± 0.013 | 0.48 ± 0.48 | 1.996 ± 0.015
CGUCUA | -0.111 ± 0.073 | 2.0035 ± 0.0014 | 0.325 ± 0.29 | 2.033 ± 0.0082
GGUCCA | 0.532 ± 0.025 | 2.029 ± 0.0028 | 0.724 ± 0.15 | 2.01 ± 0.07
CGUUAA | 0.362 ± 0.031 | 1.97 ± 0.016 | 0.486 ± 0.18 | 1.98 ± 0.025
UGUGCG | 0.0533 ± 0.02 | 1.657 ± 0.011 | 0.442 ± 0.14 | 1.96 ± 0.05
UGUGCU | 0.259 ± 0.17 | 2.024 ± 0.011 | 0.414 ± 0.076 | 2.07 ± 0.03
GGUUUG | 0.0685 ± 0.084 | 2.024 ± 0.0089 | -0.1121 ± 0.00036 | 2.06 ± 0.025
UGUACU | 0.366 ± 0.027 | 1.99 ± 0.026 | 0.253 ± 0.17 | 2.021 ± 0.0023
UGUUAG | 0.447 ± 0.11 | 1.63 ± 0.04 | 0.762 ± 0.15 | 1.929 ± 0.016
UGUUAC | 0.317 ± 0.16 | 1.947 ± 0.018 | 0.39 ± 0.013 | 1.99 ± 0.021
UGUUAA | -0.0426 ± 0.13 | 1.92 ± 0.024 | 0.191 ± 0.081 | 1.98 ± 0.022
CUAAAA | 0.151 ± 0.029 | 1.98 ± 0.021 | 0.19 ± 0.12 | 1.98 ± 0.048
CUAAAG | -0.0676 ± 0.063 | 1.913 ± 0.0067 | -0.0285 ± 0.2 | 2 ± 0.035
UGUAGG | 0.342 ± 0.083 | 1.61 ± 0.018 | 0.855 ± 0.1 | 1.92 ± 0.033
UGUAGC | 0.389 ± 0.16 | 1.907 ± 0.01 | 0.362 ± 0.049 | 1.988 ± 0.016
GGUGAU | 0.294 ± 0.15 | 2.015 ± 0.013 | 0.491 ± 0.23 | 2.028 ± 0.018
GGUGAC | 0.359 ± 0.087 | 2.027 ± 0.008 | 0.217 ± 0.074 | 2.01 ± 0.037
CGUUGC | 0.557 ± 0.049 | 2.02 ± 0.025 | 0.358 ± 0.33 | 2.02 ± 0.047
UGUUUU | 0.296 ± 0.18 | 1.985 ± 0.0066 | 0.546 ± 0.13 | 2.03 ± 0.023
UGUUUG | 0.222 ± 0.04 | 1.794 ± 0.0043 | 0.62 ± 0.05 | 2.01 ± 0.025
AGUUCA | 0.161 ± 0.15 | 2.005 ± 0.006 | -0.01 ± 0.41 | 2.008 ± 0.012
UGUGGA | -0.112 ± 0.058 | 1.816 ± 0.0017 | 0.123 ± 0.11 | 2 ± 0.027
UGUGGG | 0.109 ± 0.02 | 1.6031 ± 0.0006 | 0.695 ± 0.086 | 1.96 ± 0.017
UGUGGU | 0.0696 ± 0.063 | 1.89 ± 0.022 | 0.265 ± 0.0042 | 2 ± 0.054

Variant | FACS-Seq fitted mean (log10) ((6R,S)-folinic acid [1]) | normalized RNA/DNA level without ligand (log10) ((6R,S)-folinic acid [2]) | FACS-Seq fitted mean (log10) ((6R,S)-folinic acid [3]) | normalized RNA/DNA level with ligand (log10) ((6R,S)-folinic acid [4])
UGUUGG | -0.0684 ± 0.078 | 1.53 ± 0.048 | 0.426 ± 0.024 | 1.88 ± 0.042
UGUUGA | 0.32 ± 0.026 | 1.837 ± 0.015 | 0.463 ± 0.13 | 2.01 ± 0.035
AGUGAU | 0.213 ± 0.04 | 1.972 ± 0.016 | 0.178 ± 0.14 | 1.996 ± 0.0024
UGUAUC | -0.0452 ± 0.058 | 2.016 ± 0.019 | -0.247 ± 0.051 | 1.99 ± 0.028
UGUAUU | 0.438 ± 0.16 | 1.9737 ± 0.0017 | 0.253 ± 0.086 | 2.01 ± 0.032
UGUAUG | -0.0525 ± 0.085 | 1.707 ± 0.007 | 0.265 ± 0.086 | 1.96 ± 0.039
GGUUGC | 0.472 ± 0.12 | 1.932 ± 0.0076 | 0.388 ± 0.059 | 1.9808 ± 0.0018
GGUUGA | 0.168 ± 0.043 | 2.083 ± 0.0081 | -0.309 ± 0.06 | 2.07 ± 0.031
CGUAUA | 0.0787 ± 0.09 | 1.93 ± 0.025 | 0.189 ± 0.17 | 1.983 ± 0.016
CGUAUU | -0.147 ± 0.033 | 2.034 ± 0.011 | 0.0205 ± 0.0068 | 2.03 ± 0.037
GUAAAU | 0.332 ± 0.13 | 1.971 ± 0.0055 | 0.464 ± 0.033 | 2.003 ± 0.0095
GUAAAC | 0.139 ± 0.033 | 1.965 ± 0.0075 | 0.507 ± 0.47 | 2.04 ± 0.0061
GUAAAA | 0.0987 ± 0.013 | 1.998 ± 0.0036 | -0.0576 ± 0.026 | 1.96 ± 0.046
AUAAAA | 0.343 ± 0.0039 | 1.9901 ± 0.0019 | 0.263 ± 0.23 | 1.994 ± 0.016
AUAAAC | -0.0226 ± 0.13 | 1.998 ± 0.0043 | -0.127 ± 0.3 | 1.99 ± 0.026
AUAAAG | 0.418 ± 0.03 | 1.901 ± 0.0089 | 0.417 ± 0.016 | 2 ± 0.036
GGUAUG | 0.288 ± 0.015 | 1.986 ± 0.01 | 0.241 ± 0.14 | 2.01 ± 0.021
GGUAUA | 0.316 ± 0.031 | 1.987 ± 0.0071 | 0.271 ± 0.15 | 2 ± 0.032
CGUGAA | 0.328 ± 0.19 | 1.9509 ± 0.0012 | 0.192 ± 0.33 | 2.01 ± 0.028
CGUGAC | 0.241 ± 0.037 | 2.015 ± 0.01 | 0.201 ± 0.09 | 1.99 ± 0.052
UGUGUA | 0.429 ± 0.1 | 1.895 ± 0.0065 | 0.399 ± 0.015 | 2.01 ± 0.021
UGUGUG | 0.164 ± 0.26 | 1.591 ± 0.003 | 0.393 ± 0.24 | 1.94 ± 0.062
GGUUAG | 0.215 ± 0.017 | 1.982 ± 0.016 | 0.245 ± 0.13 | 2 ± 0.035
GGUUAU | 0.612 ± 0.021 | 1.989 ± 0.019 | 0.481 ± 0.077 | 1.98 ± 0.023

Variant | FACS-Seq fitted mean (log10) ((6R,S)-folinic acid [1]) | normalized RNA/DNA level without ligand (log10) ((6R,S)-folinic acid [2]) | FACS-Seq fitted mean (log10) ((6R,S)-folinic acid [3]) | normalized RNA/DNA level with ligand (log10) ((6R,S)-folinic acid [4])
GGUGGA | 0.534 ± 0.074 | 2.054 ± 0.01 | 0.58 ± 0.079 | 2.06 ± 0.062
AGUACG | 0.0935 ± 0.062 | 1.935 ± 0.0077 | -0.00576 ± 0.14 | 2.03 ± 0.045
UGUCGU | 0.152 ± 0.076 | 1.95 ± 0.012 | 0.267 ± 0.017 | 2 ± 0.021
UGUCGG | 0.0192 ± 0.057 | 1.66 ± 0.015 | 0.166 ± 0.29 | 1.94 ± 0.043
AGUCGU | 0.209 ± 0.14 | 1.979 ± 0.013 | -0.0314 ± 0.084 | 2.03 ± 0.029
AGUCGA | 0.3437 ± 0.0018 | 1.974 ± 0.012 | 0.506 ± 0.09 | 2.021 ± 0.0067
GGUAGU | 0.312 ± 0.15 | 1.988 ± 0.0021 | 0.316 ± 0.16 | 2.01 ± 0.055
GGUGCA | 0.256 ± 0.027 | 2.037 ± 0.017 | 0.204 ± 0.17 | 2.04 ± 0.032
GGUGCU | -0.205 ± 0.13 | 2.005 ± 0.017 | 0.149 ± 0.25 | 2.01 ± 0.046
UGUUCC | 0.382 ± 0.066 | 2.05 ± 0.023 | 0.146 ± 0.006 | 2.05 ± 0.062
AGUAUG | 0.41 ± 0.013 | 1.89 ± 0.022 | 0.586 ± 0.1 | 1.994 ± 0.019
AGUCAA | 0.156 ± 0.066 | 1.962 ± 0.0074 | 0.225 ± 0.046 | 1.96 ± 0.053
UGUGAG | 0.269 ± 0.082 | 1.6 ± 0.0064 | 0.649 ± 0.03 | 1.906 ± 0.0071
UGUGAA | 0.186 ± 0.034 | 1.899 ± 0.015 | 0.243 ± 0.25 | 1.984 ± 0.012
AGUUGA | 0.17 ± 0.13 | 1.964 ± 0.015 | 0.105 ± 0.028 | 2.018 ± 0.016
AGUUGC | 0.455 ± 0.088 | 2.001 ± 0.0034 | 0.705 ± 0.23 | 2.03 ± 0.016
AGUUGU | 0.3648 ± 0.0018 | 1.962 ± 0.012 | 0.521 ± 0.35 | 2.04 ± 0.028
UGUCUG | 0.171 ± 0.096 | 1.73 ± 0.02 | 0.451 ± 0.14 | 1.96 ± 0.047
UGUCCA | 0.433 ± 0.12 | 2.02 ± 0.025 | 0.395 ± 0.04 | 2.024 ± 0.014
AGUGGA | 0.399 ± 0.14 | 1.963 ± 0.018 | 0.327 ± 0.082 | 2.015 ± 0.0071
CGUGGA | 0.378 ± 0.16 | 1.988 ± 0.014 | 0.668 ± 0.33 | 2.02 ± 0.043
UUAAAG | 0.413 ± 0.085 | 1.822 ± 0.008 | 0.519 ± 0.17 | 1.94 ± 0.042
UUAAAC | 0.248 ± 0.093 | 1.984 ± 0.0098 | 0.271 ± 0.092 | 1.99 ± 0.031
UUAAAA | 0.578 ± 0.062 | 1.9319 ± 0.0016 | 0.669 ± 0.26 | 1.966 ± 0.017
